These results are taken from PMC10613257.

The term Kd denotes the free concentration of one partner at which half of the binding sites on the other are occupied at equilibrium, for simple one-to-one binding. Low values mean a tighter complex, high ones a looser complex.

The target in assay [1] is insulin-like growth factor binding protein 5 (IGFBP5), full length, wild type (UniProt P24593). Kind of assay: FP. The note with it: enzyme.
Assay [2] shares this target. Kind of assay: fluorescence polarisation; FAM-labelled FL IGFBP5 at 5 nM; enzyme serially diluted from 10 µM to 0.5 nM; 1X PBS; 384-well plates; catalytically inactive enzymes. Background: In fluorescence polarisation assays a small probe gives low polarisation when free and higher when bound to something large.

Sequence of insulin-like growth factor binding protein 5 (IGFBP5), full length, wild type (P24593 21-272): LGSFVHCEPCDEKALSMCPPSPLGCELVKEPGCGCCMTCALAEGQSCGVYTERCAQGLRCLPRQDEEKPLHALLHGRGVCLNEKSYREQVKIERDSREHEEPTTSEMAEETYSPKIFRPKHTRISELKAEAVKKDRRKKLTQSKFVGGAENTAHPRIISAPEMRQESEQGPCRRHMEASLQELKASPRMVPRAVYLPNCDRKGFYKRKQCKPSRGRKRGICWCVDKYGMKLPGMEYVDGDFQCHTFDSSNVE

With “PAPP-A2 E500Q (catalytically inactive) (from UniProt Q9BXP8 235-1791)”, the Kd in assay [1] is 2640 nM. The substance “PAPP-A2 E500Q (catalytically inactive) (from UniProt Q9BXP8 235-1791) (enzyme)” registered a fold weaker binding than PAPP-A E483A in assay [2] of 11 fold.
